B1: TPR t1 (parent)
chain: GACCAAUCUGCCCUCAGAGCUCGAGAACAUCUUCGGAUGCAGAGGAGGCAGGCUUCGGUGGCGCGAUAGCGCCAACGUCCUCAACCUCCAAUGCAUCCCACCACAUGAUGAUGCCUGAAGAGCCUUGGUUUUUUG

Variants of: B1
Assay: polymerase ribozyme fitness, log enrichment relative to wild type (log ratio); higher = more active; in vitro selection for triplet polymerase activity
How it was run: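 After PCR construction and transcription, each subunit's mutant library from a heterodimeric triplet polymerase ribozyme was annealed with a biotinylated primer, the partner subunit and triplets. Incubation was frozen, at −7 °C, and extended constructs were gel-excised, bound to streptavidin beads and amplified by RT-PCR, in one selection round done in triplicate. Fitness is the logarithm of a genotype's enrichment divided by that of the wild type, from inverse-variance-weighted replicate averages of Illumina-sequenced inputs and outputs. The base of the logarithm is 2, and genotypes needed ≥10 input reads and ≥1 read per output.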

| Variant | polymerase ribozyme fitness (log ratio) |
| --- | --- |
| C89A C114U | -0.329 |
| C89A C114G | -2.82 |
| C88G G110C | -5.26 |
| A90C C97U G113A | -2.12 |
| U87A C99U | -3.14 |
| C86A U116G | -2.89 |
| C89A G117A | -1.73 |
| C89A G117C | -4.96 |
| C89A G117U | -4.53 |
| A90G A119U | 0.257 |
| C88U G120A G128A | -1.29 |
| C86G A91G | -1.96 |
| C88A C101U | -0.505 |
| U92A A118U | -1.95 |
| U87A C102U C104A | -1.05 |
| C88G C94A A111C U133A | -3.52 |
| C89G C94G | -3.06 |
| C86G U112A G117U G120A U126A | -5.82 |
| A90G U112G | 1.3 |
| C86A U96C | -0.678 |
| C88A C115U | -0.599 |
| A90C G120U | -1.31 |
| C89G G127U | -2.9 |
| C89G U92A G122A | -4.41 |

| Variant | polymerase ribozyme fitness (log ratio) |
| --- | --- |
| U87C U126G | -1.22 |
| C86A A95G | -0.915 |
| C86U A100U G110A U129G | -3.54 |
| C88U C89A A121U G122A | -1.15 |
| U87G U106G | -1.41 |
| U87G U92A G110A | -4.75 |
| C89A G128C | -4.25 |
| C89G A90G G127C | -2.22 |
| C86A C98U | -0.468 |
| U92C A118U | -0.718 |
| A90G C114A | -1.4 |
| A91U C101A | -2.72 |
| A90C C104A | -3.78 |
| U87G C94A G120U | -0.366 |
| A91G G93C G120C | -2.18 |
| C88A C94G U112C G120C | -1.09 |
| U87C C99A C101U U116C | -6.81 |
| A91C C98G G113A | -5.51 |
| U87A U106A G113A | -2.17 |
| C88A C94A G117C | -5.02 |
| C86U C124A | 1.32 |
| C88G C102U G117U | -6.89 |
| C86A C101U | -0.0895 |
| C85U U112A | 0.416 |

| Variant | polymerase ribozyme fitness (log ratio) |
| --- | --- |
| C88U C94U | -1.32 |
| C88G G107U A111C A121U U125A | -3.56 |
| C86U U112A C123U | 0.628 |
| C86U G107U | -5.23 |
| C89U C101A | -1.39 |
| C89A G93A | -2.99 |
| C88A G135U | -0.929 |
| C88G U131C | -0.249 |
| A91C C114U G127A | -4.1 |
| C89A G120U | -1.79 |
| C88A U96C | -0.897 |
| C88A U96G | -0.386 |
| C88G U106G | -2.4 |
| A91U A111C | -2.44 |
| C88U U116C G120C | -0.613 |
| A90C C102U | -4.08 |
| C86A A111C | 0.315 |
| C89U A105U | -2.8 |
| U92C G117A | -2.67 |
| U92A C104U | -3.56 |
| C88G G117C | -4.47 |
| C88A U106A | -0.303 |
| C89A A111U G113A | -5.69 |
| U87A A111G G127C U131A | -3.23 |

| Variant | polymerase ribozyme fitness (log ratio) |
| --- | --- |
| A91G C101U G110A | -2.85 |
| C89G C124A | 0.877 |
| C86G A111G G135A | -0.134 |
| A91C U133A | -0.906 |
| A91C C123A U133G | -1.07 |
| U87A C89U C123A C124G | 1.56 |
| U92A G93C | -2.69 |
| C89A C124A | 0.985 |
| C86U G110A A111C | -4.3 |
| C89U G117A U129A | -3.55 |
| C89G G113C G122U | -2.99 |
| C86G C88U A105G | -4.95 |
| A91G G117U | -3.4 |
| A91C C114G | -2.5 |
| C88U A119G | 1.04 |
| A91C U129A | -2.78 |
| C89G C123G | 0.45 |
| C88U A105G C123U | -1.46 |
| C86A U132C U133A | -1.36 |
| U87G G113C | -2.26 |
| U92A U131G | -2.59 |
| A90C C97A C99G G113A G122U | -7.3 |
| C89A C94A C104U G110A | -4.47 |
| A90U G117C | -1.43 |

| Variant | polymerase ribozyme fitness (log ratio) |
| --- | --- |
| C88U C115A | -0.441 |
| U87C U96A | 0.252 |
| U87C C89G | -1.1 |
| C89U A108G C114U | -4.44 |
| A91G G110U | -2.66 |
| U87A C123A | 0.223 |
| A91G C104A | -2.34 |
| U87C G110U | -0.496 |
| C89A A121G | 1.44 |
| U87A G120A | 0.663 |
| C86A U112A | 0.808 |
| U92C U106G G135C | -3.67 |
| A90U U133G | -1.46 |
| A90U G93U | -1.11 |
| U87A U106G | -1.35 |
| C86U G110U | -1.02 |
| C88U G120U U126G | -3.22 |
| U87A A119U G128A U131G | -1.07 |
| C89A C101A G117A | -5 |
| C85U U133A | -0.839 |
| C89U C104A | -1.84 |
| C88G G128C | -3.43 |
| C88A | -0.325 |
| C88U | -0.0459 |

| Variant | polymerase ribozyme fitness (log ratio) |
| --- | --- |
| C88G | -0.581 |
| U87C A95U C102A C124A G128C | -3.08 |
| U87A G110C | -3.47 |
| A90U G113A G128A | -3.47 |
| C86U G93A C101G G122A | -3.73 |
| U92A C101A | -3.47 |
| U87G U109A | -3.08 |
| C86U U131G | -0.498 |
| C88U A100U G120A | -0.615 |
| C89U C124U | 1.37 |
| C89U C124A | 0.152 |
| C88A G113C G122A U129A | -5.29 |
| U87C C99U U129G | -3.62 |
| C89A G113C | -1.8 |
| C89G U126A | -2.85 |
| C88U C104U | 0.689 |
| C89G U125A | -2.07 |
| A91C G127C | -2.93 |
| A91U G128U | -3.95 |
| C86U A91G C98U | -2.63 |
| A90U C114G A118G | -3.15 |
| U92C G120U | 0.184 |
| A91U G120U | -1.93 |
| C88G G107A U130C | -6.86 |

| Variant | polymerase ribozyme fitness (log ratio) |
| --- | --- |
| C89U A90G | 0.141 |
| C88A A111U | -4.33 |
| A91G C102A C104A U109A | -5.59 |
| C86U A111G C123A G127A | -2.33 |
| C86G G128A | -2.15 |
| C89G U109G | -5.16 |
| C89G U109A | -5.37 |
| U87G G120A | 0.0419 |
| C88A U106A U109A U126A U131G | -5.92 |
| C89G G93A C94G C124G G128C | -7.66 |
| A90U C97U | -2.38 |
| C85U U130A | -1.86 |
| U87G A119G | 1.67 |
| A90C U106A A108G | -2.24 |
| C89A G93A G120A | -1.81 |
| C88U G120U | 0.291 |
| C88U G120C | 0.853 |
| C86G G93A G113C | -4.01 |
| C86U C102A U112A C114A | -4.14 |
| C88G G120A A121C G135U | -0.939 |
| U87G U129C | 0.0365 |
| A91U U132C | -1.79 |
| U87A C88A G110U G127A | -3.99 |
